Results reported in patent US20260055369A1, “METHOD FOR GENERATING CELLS OF THE T CELL LINEAGE WITH ENGINEERING BROADLY REACTIVE HUMAN NOTCH LIGAND” (H. Lee Moffitt Cancer Center and Research Institute, Inc., priority 2022, published 2026).

Tests used:
Notch1 (EGF6-13) = experiment: SPR determination of equilibrium dissociation constants; format: binding, human
Experimental: Equilibrium dissociation constants were determined by surface plasmon resonance using a Biacore T200 instrument (GE Healthcare). Approximately 100 resonance units (RU) of biotinylated Notch extracellular fragments (Notch1 (EGF6-13), Notch2 (EGF6-13), Notch3 (EGF5-12), Notch4 (7-12), and mouse Notch1 (EGF6-13)) were immobilized on individual flow cells at 5 μl/min using a streptavidin-coated sensor chip (Series S Sensor chip SA, GE Healthcare). Three-fold serial dilutions of recombinant DLL4 proteins (N-EGF5) starting at 50 μM (WT DLL4), 18 μM (DLL4.v2), and 6 μM (DLL4.v1 and Delta^MAX) were flowed over the chip at 25° C. in SPR buffer (20 mM HEPES pH 7.4, 150 mM NaCl, 1 mM calcium chloride, 0.1% BSA supplemented with 0.005% surfactant P20). Association (“on-rate”) and dissociation (“off-rate”) phases were performed at 10 μl/min for 120 seconds and 300 seconds, respectively. The sensor chip was regenerated after each injection with 30-second washes of 2.25M Magnesium Chloride containing 25% Ethylene Glycol at 50 μL/min. Data collection rate was performed at 10 Hz, and curves were reference-subtracted from a flow cell containing 100 RU of a negative control non-related protein (biotinylated mouse RNF43 PA domain). The maximum RU for each experiment was normalized to a value of 100% and plotted as a function of concentration using Prism 9 software (GraphPad). Steady-state binding and kinetic curves were fitted using the Biacore T200 evaluation software to a 1:1 Langmuir model to determine the KD values.

Notch1 = experiment: Notch activation in co-culture format with HEK293T (U2OS luciferase reporter); format: cell-based, human; conditions: HEK293T expressing full-length ligand, 1:1 ratio
Sequence of Notch1 (P46531 19-1664 limits assumed): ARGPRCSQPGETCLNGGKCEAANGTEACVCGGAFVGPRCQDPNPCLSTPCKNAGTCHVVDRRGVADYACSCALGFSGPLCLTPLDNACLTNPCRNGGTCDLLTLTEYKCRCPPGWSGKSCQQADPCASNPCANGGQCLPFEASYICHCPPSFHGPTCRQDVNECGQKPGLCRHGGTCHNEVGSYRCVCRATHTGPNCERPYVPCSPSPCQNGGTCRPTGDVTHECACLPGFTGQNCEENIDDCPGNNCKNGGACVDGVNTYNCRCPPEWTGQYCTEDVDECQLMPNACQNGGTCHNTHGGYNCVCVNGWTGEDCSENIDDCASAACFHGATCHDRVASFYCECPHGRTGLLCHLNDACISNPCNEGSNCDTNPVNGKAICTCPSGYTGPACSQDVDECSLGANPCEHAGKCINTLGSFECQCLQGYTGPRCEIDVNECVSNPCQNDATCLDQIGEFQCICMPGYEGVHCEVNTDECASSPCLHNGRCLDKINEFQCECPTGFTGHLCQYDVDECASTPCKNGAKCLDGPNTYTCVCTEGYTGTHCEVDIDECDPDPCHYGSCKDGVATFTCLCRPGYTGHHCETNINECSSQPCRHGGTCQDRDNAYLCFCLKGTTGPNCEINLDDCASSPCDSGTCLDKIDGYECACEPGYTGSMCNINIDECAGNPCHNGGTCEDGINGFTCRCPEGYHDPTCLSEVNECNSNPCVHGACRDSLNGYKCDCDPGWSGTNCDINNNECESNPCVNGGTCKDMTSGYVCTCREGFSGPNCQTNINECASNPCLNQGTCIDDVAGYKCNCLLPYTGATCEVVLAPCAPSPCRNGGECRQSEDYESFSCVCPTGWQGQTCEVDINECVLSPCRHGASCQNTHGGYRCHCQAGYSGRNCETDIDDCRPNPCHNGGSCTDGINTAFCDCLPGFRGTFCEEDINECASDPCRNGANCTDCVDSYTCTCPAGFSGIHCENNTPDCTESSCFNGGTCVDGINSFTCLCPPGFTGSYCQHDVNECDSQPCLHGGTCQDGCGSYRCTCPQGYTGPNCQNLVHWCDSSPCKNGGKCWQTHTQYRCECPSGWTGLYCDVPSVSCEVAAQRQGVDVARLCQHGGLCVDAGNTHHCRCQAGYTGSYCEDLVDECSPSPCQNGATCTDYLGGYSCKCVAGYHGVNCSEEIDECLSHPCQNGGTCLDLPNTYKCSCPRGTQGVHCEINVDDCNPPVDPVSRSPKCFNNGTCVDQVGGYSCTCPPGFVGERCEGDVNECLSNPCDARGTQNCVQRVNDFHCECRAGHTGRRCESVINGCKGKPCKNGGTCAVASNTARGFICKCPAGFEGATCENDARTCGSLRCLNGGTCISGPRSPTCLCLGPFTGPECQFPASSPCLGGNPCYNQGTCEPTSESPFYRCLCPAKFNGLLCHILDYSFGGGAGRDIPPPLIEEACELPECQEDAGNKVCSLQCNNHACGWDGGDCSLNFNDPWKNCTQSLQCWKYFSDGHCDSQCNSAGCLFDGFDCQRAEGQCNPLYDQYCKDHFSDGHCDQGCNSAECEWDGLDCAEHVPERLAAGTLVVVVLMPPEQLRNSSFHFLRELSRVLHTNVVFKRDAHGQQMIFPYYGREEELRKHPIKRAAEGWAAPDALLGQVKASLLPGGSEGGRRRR
Sequence of Notch1 (P46531 1665-1756 limits assumed): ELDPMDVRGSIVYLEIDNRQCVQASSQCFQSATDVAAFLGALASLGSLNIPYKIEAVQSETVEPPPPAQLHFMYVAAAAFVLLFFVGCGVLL
Experimental: (§1) On day one, U2OS reporter cells (signal receiver cells) were detached with trypsin-EDTA, washed with DPBS, and 5×10^5 cells were added to 6-well plates (Falcon) for transfection with luciferase reporter vectors. On day two, U2OS cells were transfected as described above. On day three, signal receiver cells were detached with trypsin-EDTA, and 100 μL of DMEM media containing 20,000 cells were added to tissue culture 96-well plates (Coastar). In parallel, HEK293T-expressing WT DLL4 or Delta^MAX were detached with trypsin-EDTA, counted manually, and dilutions prepared such that 100 μL of DMEM containing 20,000 signal sender cells were added over signal receiver cells (cell ratio 1:1). Doxycycline (Sigma) at 2 μg/mL was used to induce Notch-Gal4 expression. On day four, luciferase firefly and Renilla signals were determined with Dual-Glo luciferase assay system (Promega) using a GloMax luminometer (Promega). A luminescence ratio firefly:Renilla was determined for every well and normalized to the signal of a well containing U2OS reporter cells and HEK293T non-expressing DLL4 ligands. Notch activation is represented as the mean fold-change over the control±s.d. of three independent biological replicates.

Notch2 [1] = experiment: as above; format: cell-based, human; conditions: HEK293T expressing full-length ligand, 1:1 ratio; P=0.037
Sequence of Notch2 (Q04721 221-530 limits assumed): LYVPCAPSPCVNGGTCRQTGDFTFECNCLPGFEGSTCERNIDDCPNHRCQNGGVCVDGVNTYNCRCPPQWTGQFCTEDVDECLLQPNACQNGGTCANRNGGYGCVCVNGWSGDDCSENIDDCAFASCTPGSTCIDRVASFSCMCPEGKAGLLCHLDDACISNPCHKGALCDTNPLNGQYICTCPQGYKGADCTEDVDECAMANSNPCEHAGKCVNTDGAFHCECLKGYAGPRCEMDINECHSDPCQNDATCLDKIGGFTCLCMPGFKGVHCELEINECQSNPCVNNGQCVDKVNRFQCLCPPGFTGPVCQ
Experimental: as §1

Notch3 = experiment: as above; format: cell-based, human; conditions: HEK293T expressing full-length ligand, 1:1 ratio
Sequence of Notch3 (Q9UM47 197-505 limits assumed): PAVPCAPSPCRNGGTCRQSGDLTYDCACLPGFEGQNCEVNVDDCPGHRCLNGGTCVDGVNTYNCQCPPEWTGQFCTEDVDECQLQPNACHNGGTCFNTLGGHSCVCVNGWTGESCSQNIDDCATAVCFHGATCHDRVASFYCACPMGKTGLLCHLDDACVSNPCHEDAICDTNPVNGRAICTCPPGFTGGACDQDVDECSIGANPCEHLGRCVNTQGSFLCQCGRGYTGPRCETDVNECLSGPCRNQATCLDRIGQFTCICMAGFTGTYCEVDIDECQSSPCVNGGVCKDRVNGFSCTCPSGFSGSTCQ
Experimental: as §1

CD8+ T cells = experiment: Co-culture assay for IFNγ in T cells (K32 aAPCs expressing ligand); format: cell-based, human; conditions: 96 h, P=0.047
Experimental: Functional assays for human CD8^+ T cells were performed in co-culture with K562 cells expressing human CD32 (K32 cells) generated as described before7. Briefly, cells were γ-irradiated (100Gy) and washed twice with PBS before being loaded with OKT3 (0.0125-0.5 μg/mL, BioXcell) antibody at RT for 10 min. Human CD8^+ T cells were negatively isolated from PBMC and labeled with 5 μM of Cell Trace Violet (Invitrogen) according to manufacturer's specifications. Next, CD8^+ T cells were co-cultured with K32 cells at ratio 1:10 (T cell:K32). The frequency of proliferating T cells was determined after 96 hours by flow cytometry using a CytoFLEX II (Beckman Coulter). Zombie Green (Biolegend) was used for life/dead cell staining to discard dead cells from the analysis. A set of samples were additionally incubated with Golgi stop (BD) at 0.5 μL/well for 5 hours and washed with PBS for detection of intracellular IFNγ using anti-hIFNγ APC antibody (Biolegend). The frequency of IFNγ positive cells was analyzed by flow cytometry (CytoFLEX II, Beckman Coulter). Dead cells were excluded from the analysis by staining with Zombie green (Biolegend). The data represent the mean percentage of proliferating T cells or IFNγ^+ T cells±s.e.m. of four independent biological replicates.

Notch2 [2] = molecular target: T1, Notch2 (Homo sapiens, UniProt Q04721); experiment: Immunoblot of cleaved Notch2 in CD8+ T cells; format: cell-based; conditions: CD8+ T cells after 96 hours with K32 cells
T1 construct: endogenous in cells; host or cells: primary human CD8+ T cells from PBMC
T1 sequence (Q04721 26-2471): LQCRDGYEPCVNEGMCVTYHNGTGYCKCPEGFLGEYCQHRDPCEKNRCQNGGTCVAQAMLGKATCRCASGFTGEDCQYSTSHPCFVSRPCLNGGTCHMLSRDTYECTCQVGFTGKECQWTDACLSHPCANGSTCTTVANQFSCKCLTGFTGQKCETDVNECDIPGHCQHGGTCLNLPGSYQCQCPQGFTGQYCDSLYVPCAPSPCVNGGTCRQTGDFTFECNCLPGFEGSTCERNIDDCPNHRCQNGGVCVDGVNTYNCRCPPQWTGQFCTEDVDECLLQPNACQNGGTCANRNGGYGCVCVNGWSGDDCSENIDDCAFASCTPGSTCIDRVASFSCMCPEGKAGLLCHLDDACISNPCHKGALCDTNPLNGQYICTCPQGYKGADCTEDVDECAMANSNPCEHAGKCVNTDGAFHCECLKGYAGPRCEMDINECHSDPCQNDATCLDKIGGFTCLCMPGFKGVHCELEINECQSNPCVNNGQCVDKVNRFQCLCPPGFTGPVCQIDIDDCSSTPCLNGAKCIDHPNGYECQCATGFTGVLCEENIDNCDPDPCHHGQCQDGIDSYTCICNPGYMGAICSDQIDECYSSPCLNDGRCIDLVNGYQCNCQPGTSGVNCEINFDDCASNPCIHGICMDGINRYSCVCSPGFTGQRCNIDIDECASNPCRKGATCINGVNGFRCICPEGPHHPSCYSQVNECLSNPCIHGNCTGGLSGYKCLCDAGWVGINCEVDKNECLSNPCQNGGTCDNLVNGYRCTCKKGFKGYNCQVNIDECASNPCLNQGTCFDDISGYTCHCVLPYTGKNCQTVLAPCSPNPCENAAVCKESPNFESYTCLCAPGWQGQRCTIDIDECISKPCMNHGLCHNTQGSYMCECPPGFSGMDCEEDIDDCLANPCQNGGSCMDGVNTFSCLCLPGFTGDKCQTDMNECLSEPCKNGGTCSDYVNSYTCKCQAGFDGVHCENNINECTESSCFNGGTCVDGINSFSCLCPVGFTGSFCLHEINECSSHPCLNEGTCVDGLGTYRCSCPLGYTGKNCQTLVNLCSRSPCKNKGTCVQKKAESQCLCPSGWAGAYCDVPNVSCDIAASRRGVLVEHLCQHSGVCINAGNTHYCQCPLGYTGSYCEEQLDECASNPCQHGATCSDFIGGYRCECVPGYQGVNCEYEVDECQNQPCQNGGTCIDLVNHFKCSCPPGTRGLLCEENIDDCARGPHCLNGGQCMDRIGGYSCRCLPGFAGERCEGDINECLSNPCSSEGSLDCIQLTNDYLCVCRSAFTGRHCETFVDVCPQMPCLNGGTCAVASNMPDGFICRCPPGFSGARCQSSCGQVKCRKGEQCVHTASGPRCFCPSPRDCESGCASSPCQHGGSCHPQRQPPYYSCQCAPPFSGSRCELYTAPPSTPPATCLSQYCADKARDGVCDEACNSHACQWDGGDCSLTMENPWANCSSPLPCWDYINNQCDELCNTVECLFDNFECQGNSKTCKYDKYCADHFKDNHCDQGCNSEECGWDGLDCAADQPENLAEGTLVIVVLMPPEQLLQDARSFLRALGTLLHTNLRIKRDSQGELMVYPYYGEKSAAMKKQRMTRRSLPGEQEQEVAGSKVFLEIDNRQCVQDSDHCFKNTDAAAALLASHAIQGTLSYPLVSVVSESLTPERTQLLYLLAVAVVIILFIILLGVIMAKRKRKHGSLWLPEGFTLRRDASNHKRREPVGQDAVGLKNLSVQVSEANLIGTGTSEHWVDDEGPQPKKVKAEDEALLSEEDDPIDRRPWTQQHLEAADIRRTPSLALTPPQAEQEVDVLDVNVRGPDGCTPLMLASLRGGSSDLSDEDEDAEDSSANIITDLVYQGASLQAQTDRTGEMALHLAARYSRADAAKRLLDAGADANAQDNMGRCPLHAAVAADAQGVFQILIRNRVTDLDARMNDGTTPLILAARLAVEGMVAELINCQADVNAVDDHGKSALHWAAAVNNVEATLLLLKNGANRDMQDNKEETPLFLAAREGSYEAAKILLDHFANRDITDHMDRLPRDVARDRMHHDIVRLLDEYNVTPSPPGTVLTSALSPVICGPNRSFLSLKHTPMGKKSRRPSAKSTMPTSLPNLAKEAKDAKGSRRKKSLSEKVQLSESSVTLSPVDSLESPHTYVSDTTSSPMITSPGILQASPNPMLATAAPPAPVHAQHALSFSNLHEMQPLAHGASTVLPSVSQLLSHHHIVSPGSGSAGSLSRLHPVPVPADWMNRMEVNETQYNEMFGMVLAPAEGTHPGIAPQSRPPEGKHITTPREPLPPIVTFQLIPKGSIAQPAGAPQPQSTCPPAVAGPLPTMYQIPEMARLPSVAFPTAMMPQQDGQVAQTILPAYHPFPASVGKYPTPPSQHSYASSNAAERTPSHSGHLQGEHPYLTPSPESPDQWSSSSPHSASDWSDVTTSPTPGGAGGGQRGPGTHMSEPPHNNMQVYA
Source text: For detection of Notch activation in CD8^+ T cells, following co-culture with K32 cell lines, CD8^+ T cells were positively enriched by Magnisort Human CD8^+ T cell positive selection Kit (Invitrogen). Nuclear fraction was isolated using NE-PER Nuclear and Cytoplasmic extraction kit (ThermoFisher). Equal protein amounts of nuclear cell lysates were run on 4-20% gradient Tris-glycine gels (Novex-Invitrogen), transferred to PVDF membranes using an iBlot Gel Transfer Device (ThermoFisher), and immunoblotted with antibodies anti-cleaved Notch1 (Val1744 rabbit mAb, Cell Signaling Technology, 1:1,000), anti-Notch2 (D76A6 rabbit mAb, Cell Signaling Technology, 1:1,000), and anti-β Actin (mouse mAb, Sigma, 1:20,000). Secondary antibodies anti-IgG (anti-rabbit or anti-mouse, GE Healthcare, 1:5,000) conjugated to horseradish peroxidase (HRP) were used for detection of proteins using ECL Western Blot Substrate Reagent (Thermo Fisher Scientific). Images were acquired using a Chemidoc Imaging System and analyzed with Image-Lab software (Bio-Rad).

Sequence of Notch1 (EGF6-13) (P46531 257-526 limits assumed): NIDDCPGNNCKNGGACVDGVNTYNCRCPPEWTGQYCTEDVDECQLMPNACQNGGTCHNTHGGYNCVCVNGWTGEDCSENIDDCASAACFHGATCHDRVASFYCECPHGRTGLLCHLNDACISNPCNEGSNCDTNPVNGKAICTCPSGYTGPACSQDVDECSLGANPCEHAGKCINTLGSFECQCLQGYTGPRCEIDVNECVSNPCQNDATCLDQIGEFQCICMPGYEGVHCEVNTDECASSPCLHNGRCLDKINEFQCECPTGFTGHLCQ

B1: Delta^MAX: engineered human DLL4 consensus variant with 10 mutations combining DLL4.v1 and DLL4.v2 mutations; sequence matches SEQ ID NO: 4/10 (protein)
chain: SSVFQLQLQEFINERGVLASGRPCEPGCRTFFRVCLKHFQAVVSPGPCTFGTVSTPVLGTNSFAVRDDSSGGGRNPLQLPLNFTWPGTFSLIIEAWHAPGDDLRPEALPPDALISKFAIQGSLAVGQNWLLDEQTSTLTRLRYSYRVICSDNYYGDNCSRLCKKRNDYFGHYVCQPDGNPSCLPGWTGEYCQQPICLSGCHEQNGYCSKPAECLCRPGWQGRLCNECIPHPGCRHGTCSTPWQCLCDEGWGGLYCDQDLNYCTHHSPCKNGATCRNSGPRSYTCTCRPGYTGVDCELELSECDSNPCRNGGSCKDQEDGYHCLCPPGYYGLHCEHSTLSCADSPCFNGGSCRERNQGANYACECPPNFTGSNCE
- enhancement of affinity compared to WT DLL4 (Notch1 (EGF6-13); Notch1): 1,029 fold
- Kd (Notch1 (EGF6-13); SPR, 25° C., ligand N-EGF5, read-out: dissociation constant (KD)): 24 nM
- off-rate from fitted SPR sensograms (Notch1 (EGF6-13); series DLL4.v1, DLL4.v2, Delta^MAX, FIG. 2C Notch1 EGF6-13): progressive decreases in off-rate
- binding affinity compared to WT DLL4 (Notch1 (EGF6-13); stated for all four human Notch receptors (Notch1-4)): enhanced affinity
- Emax of signaling vs WT DLL4 (Notch1): ~2 fold
- Notch2 activation compared to unstimulated cells (Notch2 [1]): significant level of Notch2 activation
- Emax of signaling vs WT DLL4 (Notch3): ~2 fold
- increase of IFNγ secretion from CD8+ T cells compared with WT DLL4 (CD8+ T cells): 10-15%
- Notch2 activation (cleaved ICD) relative to WT DLL4 (Notch2 [2]): increased
